US7238668B1, “Inhibition of lymphocyte adherence with CS-1-peptides and fragments thereof” (Fred Hutchinson Cancer Research Center, priority 1989, dated 2007)
Read-outs that look alike come from different tables or passages of the source. Ends that are not written are not given here.

Columns and labels:
[1] = tested on: T lymphocytes (Jurkat or Molt 4 cells); assay: T lymphocyte adhesion to plasma fibronectin, tryptic fragments and CS peptides; format: cell-based, human
Description: Antibodies that would alter cell adhesion to purified plasma fibronectin, tryptic fragments and CS peptides were identified as previously described (Wayner and Carter, 1987). […] The plates were blocked with PBS supplemented with 10 mg/ml heat denatured BSA (HBSA). T lymphocyte or HT1080 cells were labeled with Na2 ^51CrO4 (50 μlCi/ml for 2–4 hr), washed, and 5×10^4 HT1080 or cultured T cells or […] were incubated with hybridoma culture supernatants (1:2 dilution in PBS supplemented with 1 mg/ml heat denatured BSA) or control myeloma cell culture supernatant for 15 minutes at room temperature. The cells were allowed to adhere to the protein-coated surfaces in the presence of the hybridoma supernatants for 15–30 minutes (HT1080) or 2–4 hours (lymphocytes) at 37° C. Non-adherent cells were removed by washing with PBS, and the adherent cells were dissolved in SDS/NaOH and bound ^51Cr-cpm were quantitated in a gamma counter.
Human plasma fibronectin was a generous gift from Drs. Horowitz and R. Schulman (New York Blood Center, N.Y.). […] Two overlapping peptides spanning the initial 48 residues of the IIICS region of human fibronectin (CS-1 and CS-2) were synthesized and coupled to rabbit IgG as described (Humphries et al., 1986, and Humphries et al., 1987, J. Biol. Chem. 262:6886–6892).

[2] = molecular target: T1, integrin receptor α4β1 (human, UniProt P13612 34-1032; P05556 21-798); assay: cell-based or functional assay
T1 sequence (P13612 34-1032, form in doubt, chain 1 of 2): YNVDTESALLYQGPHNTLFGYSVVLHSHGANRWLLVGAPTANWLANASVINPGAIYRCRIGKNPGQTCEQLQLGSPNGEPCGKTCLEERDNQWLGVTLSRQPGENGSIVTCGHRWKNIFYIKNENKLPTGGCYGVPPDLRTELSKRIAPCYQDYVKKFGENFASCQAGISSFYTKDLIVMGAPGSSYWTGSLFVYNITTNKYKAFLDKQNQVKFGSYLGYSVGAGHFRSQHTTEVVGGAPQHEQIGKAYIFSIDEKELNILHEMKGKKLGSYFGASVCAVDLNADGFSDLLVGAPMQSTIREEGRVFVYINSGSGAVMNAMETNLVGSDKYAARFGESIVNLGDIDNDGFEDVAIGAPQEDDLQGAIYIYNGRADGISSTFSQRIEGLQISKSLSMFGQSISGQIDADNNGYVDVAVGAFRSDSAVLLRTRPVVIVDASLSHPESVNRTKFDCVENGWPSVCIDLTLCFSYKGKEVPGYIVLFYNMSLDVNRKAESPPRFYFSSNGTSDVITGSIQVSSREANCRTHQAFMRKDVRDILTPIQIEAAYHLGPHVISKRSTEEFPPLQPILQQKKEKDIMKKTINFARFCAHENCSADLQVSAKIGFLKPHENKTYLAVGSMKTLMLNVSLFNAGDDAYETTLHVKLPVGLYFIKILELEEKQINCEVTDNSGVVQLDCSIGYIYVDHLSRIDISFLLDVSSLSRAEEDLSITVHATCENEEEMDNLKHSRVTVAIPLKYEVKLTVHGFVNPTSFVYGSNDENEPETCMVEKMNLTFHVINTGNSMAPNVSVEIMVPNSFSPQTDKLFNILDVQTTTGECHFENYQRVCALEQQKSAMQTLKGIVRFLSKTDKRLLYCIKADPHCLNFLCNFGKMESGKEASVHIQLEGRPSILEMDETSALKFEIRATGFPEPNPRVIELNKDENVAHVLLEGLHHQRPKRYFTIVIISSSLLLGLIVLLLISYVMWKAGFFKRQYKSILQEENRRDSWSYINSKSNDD
T1 sequence (P05556 21-798, form in doubt, chain 2 of 2): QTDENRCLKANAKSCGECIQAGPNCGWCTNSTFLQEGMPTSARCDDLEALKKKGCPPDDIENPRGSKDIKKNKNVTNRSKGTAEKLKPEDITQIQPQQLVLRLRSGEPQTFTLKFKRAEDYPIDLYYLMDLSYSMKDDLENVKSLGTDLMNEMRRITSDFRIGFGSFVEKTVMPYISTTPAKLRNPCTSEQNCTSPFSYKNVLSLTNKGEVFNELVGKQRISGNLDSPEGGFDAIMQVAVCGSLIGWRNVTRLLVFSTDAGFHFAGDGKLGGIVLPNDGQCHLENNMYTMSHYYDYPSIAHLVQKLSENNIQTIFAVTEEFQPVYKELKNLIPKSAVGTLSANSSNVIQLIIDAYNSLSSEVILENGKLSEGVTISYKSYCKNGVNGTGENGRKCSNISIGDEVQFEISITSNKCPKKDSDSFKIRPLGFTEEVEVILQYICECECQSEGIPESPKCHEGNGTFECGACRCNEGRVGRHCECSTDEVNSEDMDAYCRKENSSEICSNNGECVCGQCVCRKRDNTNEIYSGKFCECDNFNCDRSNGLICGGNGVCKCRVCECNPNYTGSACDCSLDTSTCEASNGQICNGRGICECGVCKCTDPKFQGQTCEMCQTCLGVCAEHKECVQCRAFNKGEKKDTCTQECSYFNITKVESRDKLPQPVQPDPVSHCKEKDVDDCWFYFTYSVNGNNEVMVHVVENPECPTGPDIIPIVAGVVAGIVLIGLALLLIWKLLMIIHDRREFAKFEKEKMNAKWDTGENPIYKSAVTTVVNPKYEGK

[3] = tested on: Jurkat cells; assay: Jurkat cell adhesion to surfaces coated with peptide-rsa conjugates; format: cell-based, human; settings: peptide-rsa conjugate coated surfaces; 50% of total input cpm; read-out: Molar Concentration (nM) required for 50% adhesion of Jurkat cells
Description: ^51Cr-labeled Jurkat cells ([…]) were incubated on surfaces coated with varying concentrations of peptide-rsa conjugates starting at 50 ug/ml (w/v) fragment or peptide (based on peptide not peptide-conjugate weight). […] (No adhesion=no measurable adhesion above negative controls.)
Adhesion of various hematopoetic cell lines to CS-1 (open bars; FIG. 12) or LDV minimal peptide-coated surfaces (cross-hatched bars; FIG. 12) was tested as follows: Jurkat (T lymphoblastoid), A375 (melanoma), U937 (monocytic), Ramos (B lymphoblastoid), and ST-1 (EBV transformed B lymphoblastoid) cells were allowed to adhere to CS-1-rsa or LDVPST-rsa (5 ug/ml peptide) coated surfaces for 30 min at 37° C. At the end of this time the non-adherent cells were washed off and the adherent cells were solubilized in NaOH/SDS and quantitated in a gamma counter. The results are expressed as bound counts per minute.

[4] = tested on: LAD (B) lymphocyte adhesion to HUVE monolayers; assay: Endothelial cell adhesion assay, LAD cells on HUVE monolayers; format: cell-based, human; settings: basal HUVE, peptides, Table X
Description: (§1) HUVEs were incubated with IL-1 β (1 ng/ml) or in some experiments with TNF α (10 ng/ml) for 6–24 hours. At the end of this incubation the HUVE monolayers were washed and used in the adhesion assay.
(§2) Human umbilical vein endothelial cells (HUVEs) were cultured in 48 well plates as described (supra). To measure adherence of lymphocytes to HUVE monolayer cultures, lymphocytes were labeled with Na2 ^51CrO4 (50 μCi/ml) for 2–4 hours), washed, and then 10^5 lymphocytes were incubated with HUVE monolayers in the presence or absence of inhibitory antibodies or CS-1 derived peptides. The lymphocytes were allowed to adhere for 30 minutes at 37°. Non-adherent cells were subsequently removed by washing with PBS, and the adherent cells were dissolved in SDS/NaOH. Bound ^51Cr-cpm were quantitated in a gamma counter. In some experiments, endothelial cells were activated prior to the adhesion assay by incubating with IL-1 β (1 ng/ml) or […] (10 ng/ml) for 6–24 hours in defined CS-100 media (Cell Systems, Seattle, Wash.).

[5] = tested on: Ramos (B) lymphocyte adhesion to HUVE monolayers; assay: Endothelial cell adhesion assay, Ramos cells on HUVE monolayers; format: cell-based, human; settings: basal HUVE, peptides, Table X
Description: as §1, §2

[6] = tested on: Jurkat (T) lymphocyte adhesion to HUVE monolayers; assay: Endothelial cell adhesion assay, Jurkat cells on HUVE monolayers; format: cell-based, human; settings: basal HUVE, peptides, Table X
Description: as §1, §2

[7] = molecular target: T1, integrin receptor α4β1; assay: soluble peptide against 51Cr-Jurkat adhesion to plasma fibronectin (5 ug/ml coat); 50% inhibition point read from plot
Description: For these experiments in Table XIII ^51Cr-labeled Jurkat cells (10^5/well) were incubated in the presence of the varying concentrations (starting at 2 mg/ml) of the indicated peptides for 15 min.

[8] = molecular target: T1, integrin receptor α4β1; assay: cell-based or functional assay; remark: listed apart in the source
[9] = molecular target: T1, integrin receptor α4β1; assay: cell-based or functional assay; remark: listed apart in the source
[10] = molecular target: integrin α5β1 (human, UniProt P08648 42-1049; P05556 21-798); assay: cell-based or functional assay
Sequence of integrin α5β1 (P08648 42-1049, chain 1 of 2): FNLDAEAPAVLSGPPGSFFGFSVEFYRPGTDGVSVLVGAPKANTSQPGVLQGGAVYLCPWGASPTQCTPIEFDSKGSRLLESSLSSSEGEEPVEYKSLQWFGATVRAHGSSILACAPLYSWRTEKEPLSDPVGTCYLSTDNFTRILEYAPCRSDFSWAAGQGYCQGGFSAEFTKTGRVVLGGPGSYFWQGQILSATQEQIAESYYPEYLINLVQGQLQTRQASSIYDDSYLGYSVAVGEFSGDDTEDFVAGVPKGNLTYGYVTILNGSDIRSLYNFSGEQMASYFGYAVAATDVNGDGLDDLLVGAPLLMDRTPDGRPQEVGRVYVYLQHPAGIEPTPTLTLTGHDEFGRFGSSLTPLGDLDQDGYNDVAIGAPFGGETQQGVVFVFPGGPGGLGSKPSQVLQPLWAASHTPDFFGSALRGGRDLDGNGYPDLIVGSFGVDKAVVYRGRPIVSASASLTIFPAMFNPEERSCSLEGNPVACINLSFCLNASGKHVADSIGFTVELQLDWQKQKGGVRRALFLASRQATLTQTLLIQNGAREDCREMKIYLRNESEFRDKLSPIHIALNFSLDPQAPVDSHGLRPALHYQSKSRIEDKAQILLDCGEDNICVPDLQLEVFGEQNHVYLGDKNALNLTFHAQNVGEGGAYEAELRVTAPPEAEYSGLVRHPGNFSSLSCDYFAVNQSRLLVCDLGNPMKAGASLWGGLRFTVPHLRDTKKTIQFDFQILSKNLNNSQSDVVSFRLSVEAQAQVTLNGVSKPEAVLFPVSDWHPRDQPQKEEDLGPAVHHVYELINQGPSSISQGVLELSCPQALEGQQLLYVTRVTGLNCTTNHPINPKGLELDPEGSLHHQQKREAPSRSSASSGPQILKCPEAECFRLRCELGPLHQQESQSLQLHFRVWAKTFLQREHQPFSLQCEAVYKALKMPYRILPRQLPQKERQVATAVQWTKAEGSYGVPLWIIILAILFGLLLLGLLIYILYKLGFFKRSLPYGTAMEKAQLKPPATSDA
Sequence of integrin α5β1 (P05556 21-798, chain 2 of 2): as the sequence (P05556 21-798, form in doubt, chain 2 of 2) above

“CS-1 (rabbit IgG conjugate): CS-1 peptide coupled to rabbit IgG (DELPQLVTLPHPNLHGPEILDVPST; also: coupled to rabbit IgG, site not given here)” was tested, and the “T lymphocyte attachment to peptide (rabbit IgG conjugate)-coated plastic surfaces” value [1] was “recognize and attach”.

LDVPST peptide was tested, and the Adhesion (cpm), Jurkat (T) on HUVE, +IL-1β; no peptide 314848 [2] was 326000 cpm, the Adhesion (cpm), Jurkat (T) on HUVE, Basal; no peptide 161092 [2] was 167000 cpm and the Adhesion (cpm), LAD (B) on HUVE, +IL-1β; no peptide 71408 [2] was 92800 cpm. For the same molecule, the Adhesion (cpm), LAD (B) on HUVE, Basal; no peptide 44860 [2] was 39700 cpm, the Adhesion (cpm), Ramos (B) on HUVE, +IL-1β; no peptide 12936 [2] was 15100 cpm and the Adhesion (cpm), Ramos (B) on HUVE, Basal; no peptide 2724 [2] was 3530 cpm.

Molecule “rsa-LDV: LDV conjugated to rabbit serum albumin (Leu-Asp-Val; also: conjugated to rabbit serum albumin)” has an EC50 [3] greater than 2000 nM.

“DELPQLVTLPHPNLHGPEILDVPST [Peptide 344, synthetic CS-1 peptide of the fibronectin IIICS region]” was tested, and the “Adhesion (cpm) Basal” value [4] was 17500 cpm, the “Adhesion (cpm) Basal” value [5] was 1660 cpm and the “Adhesion (cpm) Basal” value [6] was 29568 cpm.

Molecule EILDV [EILDV peptide] has an IC50 [7] of 660 µM.

VPST [VPST peptide] was tested, and the “Adhesion (cpm), Jurkat (T) on HUVE, +IL-1β; unrelated peptide 293(A) 129864” value (shortened to “Adhesion (cpm) … unrelated peptide 293(A) 129864”) [8] was 128000 cpm, the “Adhesion (cpm), LAD (B) on HUVE, +IL-1β; unrelated peptide 293A 74096” value (“Adhesion (cpm) … unrelated peptide 293A 74096” below) [8] was 42700 cpm and the “Adhesion (cpm), Ramos (B) on HUVE, +IL-1β; unrelated peptide 293A 11132” value (“Adhesion (cpm) … unrelated peptide 293A 11132” for short) [8] was 4570 cpm. For the same molecule, the “Adhesion (cpm), Jurkat (T) on HUVE, +IL-1β; no peptide 314848” value (shortened to “Adhesion (cpm), Jurkat … no peptide 314848”) [9] was 322000 cpm, the “Adhesion (cpm), Jurkat (T) on HUVE, Basal; no peptide 161092” value (from here on “Adhesion (cpm), Jurkat … no peptide 161092”) [9] was 204000 cpm and the “Adhesion (cpm), LAD (B) on HUVE, +IL-1β; no peptide 71408” value (shortened to “Adhesion (cpm), LAD … no peptide 71408”) [9] was 98900 cpm. The “Adhesion (cpm), LAD (B) on HUVE, Basal; no peptide 44860” value (from here on “Adhesion (cpm), LAD … no peptide 44860”) [9] was 38200 cpm, the “Adhesion (cpm), Ramos (B) on HUVE, +IL-1β; no peptide 12936” value (shortened to “Adhesion (cpm), Ramos … no peptide 12936”) [9] was 15300 cpm and the “Adhesion (cpm), Ramos (B) on HUVE, Basal; no peptide 2724” value (“Adhesion (cpm), Ramos … no peptide 2724” below) [9] was 4170 cpm.

B1: CS-1 peptide (peptide)
peptide: DELPQLVTLPHPNLHGPEILDVPST
notes: Free peptide; also called peptide 344; synthetic CS-1
In the case of B1, the IC50 [7] is reported as 180 µM, the “Adhesion (cpm) … unrelated peptide 293(A) 129864” value [8] is reported as 75800 cpm and the “Adhesion (cpm) … unrelated peptide 293A 74096” value [8] is reported as 26200 cpm. The “Adhesion (cpm) … unrelated peptide 293A 11132” value [8] was 2830 cpm, the “Adhesion (cpm), Jurkat … no peptide 314848” value [9] was 249000 cpm and the “Adhesion (cpm), Jurkat … no peptide 161092” value [9] was 82400 cpm. For the same molecule, the “Adhesion (cpm), LAD … no peptide 71408” value [9] was 51600 cpm, the “Adhesion (cpm), LAD … no peptide 44860” value [9] was 23000 cpm and the “Adhesion (cpm), Ramos … no peptide 12936” value [9] was 5160 cpm. The “Adhesion (cpm), Ramos … no peptide 2724” value [9] was 1840 cpm.

In the case of RGDS [RGDS peptide], the “Adhesion (cpm), Jurkat … no peptide 314848” value [10] is reported as 358000 cpm, the “Adhesion (cpm), Jurkat … no peptide 161092” value [10] is reported as 299000 cpm and the “Adhesion (cpm), LAD … no peptide 71408” value [10] is reported as 102000 cpm. For the same molecule, the “Adhesion (cpm), LAD … no peptide 44860” value [10] was 70700 cpm, the “Adhesion (cpm), Ramos … no peptide 12936” value [10] was 28100 cpm and the “Adhesion (cpm), Ramos … no peptide 2724” value [10] was 16900 cpm.

For GPEILDVPST (also called peptide 354) [GPEILDVPST peptide], the IC50 [7] was 450 µM, the “Adhesion (cpm) … unrelated peptide 293(A) 129864” value [8] was 89700 cpm and the “Adhesion (cpm) … unrelated peptide 293A 74096” value [8] was 27200 cpm. For the same molecule, the “Adhesion (cpm) … unrelated peptide 293A 11132” value [8] was 2260 cpm.

With LHGPEILDVPST (also called CS-1-B12) [B12 peptide] the IC50 [7] was 400 µM.
